Assay results published in US7449185 (Daiichi Sankyo, dated 2008).

How the values were obtained:
[1] = target: T1, osteoclastogenesis inhibitory factor (OCIF), recombinant, monomer or dimer type not specified at the place of … (human, UniProt O00300 22-401, 125I on tyrosine residues where used as 125I-labeled OCIF (Iodogen method)); assay: Scatchard plot of labeled OCIF on cell membrane (told in the general description)
T1 construct: Secreted protein, about 60 kDa as monomer and 120 kDa as dimer; also called recombinant OCIF
T1 sequence (looked up): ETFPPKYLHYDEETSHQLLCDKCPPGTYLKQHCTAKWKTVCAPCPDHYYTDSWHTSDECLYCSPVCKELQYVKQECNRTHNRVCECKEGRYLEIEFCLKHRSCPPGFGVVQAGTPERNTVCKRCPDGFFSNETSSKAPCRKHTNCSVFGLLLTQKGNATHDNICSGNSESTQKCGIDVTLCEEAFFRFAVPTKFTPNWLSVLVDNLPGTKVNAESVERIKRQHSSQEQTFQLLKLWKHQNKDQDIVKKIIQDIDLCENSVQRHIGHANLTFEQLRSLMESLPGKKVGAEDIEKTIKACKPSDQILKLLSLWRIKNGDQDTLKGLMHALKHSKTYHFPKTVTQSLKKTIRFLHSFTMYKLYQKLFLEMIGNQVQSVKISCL

[2] = target: T2, OCIF, monomer type (60 kDa) (human, UniProt O00300 22-401, limits assumed, 125I on tyrosine residues (Iodogen method)); assay: Scatchard plot of 125I-OCIF binding to ST2 cells (passage about 10) cultured with vitamin D3 and dexamethasone
T2 construct: Monomer type of rOCIF, 60 kDa; also called monomer-form OCIF
T2 sequence (looked up): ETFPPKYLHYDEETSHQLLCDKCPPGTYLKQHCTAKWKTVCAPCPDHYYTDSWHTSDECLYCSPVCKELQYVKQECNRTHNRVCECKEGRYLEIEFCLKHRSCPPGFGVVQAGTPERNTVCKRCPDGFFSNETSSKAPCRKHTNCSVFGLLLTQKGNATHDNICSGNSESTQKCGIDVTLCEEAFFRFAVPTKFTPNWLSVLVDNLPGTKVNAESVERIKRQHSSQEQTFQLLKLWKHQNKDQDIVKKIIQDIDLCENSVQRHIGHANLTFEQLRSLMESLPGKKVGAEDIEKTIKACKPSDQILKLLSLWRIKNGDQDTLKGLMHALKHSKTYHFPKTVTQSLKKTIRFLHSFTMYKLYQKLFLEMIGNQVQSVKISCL
Description: Solutions for measuring non-specific binding were prepared by further adding 400-fold concentration of monomer-form OCIF to these solutions. […] The results were subjected to Scatchard Plot analysis to determine the dissociation constant of OCIF and OCIF-binding protein and the number (site) of OCIF-binding protein per a ST2 cell. […] Based on the finding in Example 5(1) that osteoclasts-formation supported by the ST2 cells with passage number about 40 was more extensive than that with passage number about 10, the number (the site) of the protein of the present invention expressed on the ST2 cell with a passage number about 40 was assessed.

Kd [2]: 280 pM
B1: natural OCIF-binding protein (mouse OBM) on mouse osteoblastic stromal ST2 cells cultured with active-form vitamin D3 and dexamethasone (ligand)
chain: MRRASRDYGKYLRSSEEMGSGPGVPHEGPLHPAPSAPAPAPPPAASRSMFLALLGLGLGQVVCSIALFLYFRAQMDPNRISEDSTHCFYRILRLHENAGLQDSTLESEDTLPDSCRRMKQAFQGAVQKELQHIVGPQRFSGAPAMMEGSWLDVAQRGKPEAQPFAHLTINAASIPSGSHKVTLSSWYHDRGWAKISNMTLSNGKLRVNQDGFYYLYANICFRHHETSGSVPTDYLQLMVYVVKTSIKIPSSHNLMKGGSTKNWSGNSEFHFYSINVGGFFKLRAGEEISIQVSNPSLLDPDQDATYFGAFKVQDID
notes: also called the protein of the present invention; OBM on ST2 cells
Kd [1]: 100 to 500 pM
